The values that follow come from patent publication US20210292412A1 (published 2021).

In experiment [1] the target is T1, recombinant N-terminal extracellular domain protein of human CD47 molecule (hCD47) (UniProt Q08722 19-135).
T1 chain: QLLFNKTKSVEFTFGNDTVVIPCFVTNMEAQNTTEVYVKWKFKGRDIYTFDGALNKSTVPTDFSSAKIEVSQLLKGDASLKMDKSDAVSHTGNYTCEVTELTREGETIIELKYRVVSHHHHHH
The experiment can be described thus: BLI; avid.

The target in experiment [2] is T2, human CD47 on CCRF-CEM cells (CD47 positive cells) (human, UniProt Q08722 19-323). Description: FACS binding.
Experiment [3] addresses T1, recombinant N-terminal extracellular …. The experiment can be described thus: ELISA binding. (An ELISA detects its analyte on a solid surface through an enzyme-linked reagent.)
Experiment [4] shares this target. Description: BLI; affinity. Background: BLI is a label-free optical method that tracks binding on a fibre tip over time.
Experiment [5] addresses T2, human CD47 on CCRF-CEM cells (CD47 …). Description: FACS blocking of CD47-SIRPα.
Experiment [6] deals with T1, recombinant N-terminal extracellular …. Description: ELISA blocking of CD47-SIRPα.

B1: h15G6 VH-v5/VK-v1 (antibody, V domains shown)
VH: QVQLVQSGAEVKKPGASVKVSCKASGYTFTDYYIHWVRQAPGQGLEWMGWIYPGSGNTKYNEKFQGRVTMTRDTSISTAYMELSSLRSDDTAVYYCARRREDSFDYWGQGTLVTVSS
VL: DIVMTQSPDSLAVSLGERATINCKSSQSLLYSSNQKNYLAWYQRKPGQPPKLLIYWASNRESGVPDRFSGSGSGTDFTLTISSLQAEDVAVYYCQQFYRYPLTFGQGTKVEIK
For orientation: Kd means the constant that tells how readily two partners part at equilibrium. As usually defined, the EC50 is the midpoint of the concentration-response curve. The term IC50 denotes the concentration that gives 50% inhibition. With B1, the Kd in experiment [1] was 200 pM; in experiment [4], 23000 pM. For the same molecule, the 50% effective concentration (EC50) turned out to be 48.3 pM in experiment [2] and 31.4 pM in experiment [3]. Also, the values for the IC50 in experiment [5] and in experiment [6] were 48.8 pM and 118 pM, respectively.

B2: h15G6 VH-v7/VK-v2 (antibody, V domains shown)
VH: QVQLVQSGAELKKPGASVKVSCKASGYTFTDYYIHWVRQAPGQGLEWMGWIYPGSGNTKYNEKFQGRVTLTVDTSTSTVYMELSSLRSDDTAVYYCARRREDSFDYWGQGTLVTVSS
VL: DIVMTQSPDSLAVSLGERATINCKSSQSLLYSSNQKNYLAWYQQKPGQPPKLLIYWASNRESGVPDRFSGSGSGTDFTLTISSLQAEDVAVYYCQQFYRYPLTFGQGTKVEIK
Turning to B2, the equilibrium dissociation constant (Kd) was determined as 710 pM in experiment [1] and 56000 pM in experiment [4]. The 50% effective concentration (EC50) in experiment [2] stood at 48.8 pM; in experiment [3], 22.9 pM. Also, the figures for the IC50 in experiment [5] and in experiment [6] were 39.7 pM and 84.3 pM, respectively.

B3: h15G6 VH-v1/VK-v1 (antibody, V domains shown)
VH: QIQLVQSGAEVKKPGASVKVSCKASGYTFTDYYIHWVRQAPGQGLEWMGWIYPGSGNTKYNEKFQGRVTLTVDTSSSTVYMELSSLRSDDTAVYFCARRREDSFDYWGQGTTLTVSS
VL: DIVMTQSPDSLAVSLGERATINCKSSQSLLYSSNQKNYLAWYQRKPGQPPKLLIYWASNRESGVPDRFSGSGSGTDFTLTISSLQAEDVAVYYCQQFYRYPLTFGQGTKVEIK
Take B3: the dissociation constant (Kd) in experiment [1] is 410 pM; in experiment [4], 18000 pM. Further, the EC50 came to 60.2 pM in experiment [2] and 92 pM in experiment [3]. For the same molecule, the results for the IC50 in experiment [5] and in experiment [6] were 68.6 pM and 94.2 pM, respectively.

B4: h15G6 VH-v7/VK-v1 (antibody, V domains shown)
VH: QVQLVQSGAELKKPGASVKVSCKASGYTFTDYYIHWVRQAPGQGLEWMGWIYPGSGNTKYNEKFQGRVTLTVDTSTSTVYMELSSLRSDDTAVYYCARRREDSFDYWGQGTLVTVSS
VL: DIVMTQSPDSLAVSLGERATINCKSSQSLLYSSNQKNYLAWYQRKPGQPPKLLIYWASNRESGVPDRFSGSGSGTDFTLTISSLQAEDVAVYYCQQFYRYPLTFGQGTKVEIK
Take B4: the Kd in experiment [1] was found to be 600 pM; in experiment [4], 41000 pM. Further, the concentration for a half-maximal effect (EC50) was 48.2 pM in experiment [2] and 28.3 pM in experiment [3]. The IC50 in experiment [5] amounted to 134 pM; in experiment [6], 53 pM.
